Patent publication US20200377573

Test system: HTRA1-inhibiting peptides (Example 3-2 and 3-3, members not named)

Sequence of Human plasma kallikrein (chain, as listed by the source): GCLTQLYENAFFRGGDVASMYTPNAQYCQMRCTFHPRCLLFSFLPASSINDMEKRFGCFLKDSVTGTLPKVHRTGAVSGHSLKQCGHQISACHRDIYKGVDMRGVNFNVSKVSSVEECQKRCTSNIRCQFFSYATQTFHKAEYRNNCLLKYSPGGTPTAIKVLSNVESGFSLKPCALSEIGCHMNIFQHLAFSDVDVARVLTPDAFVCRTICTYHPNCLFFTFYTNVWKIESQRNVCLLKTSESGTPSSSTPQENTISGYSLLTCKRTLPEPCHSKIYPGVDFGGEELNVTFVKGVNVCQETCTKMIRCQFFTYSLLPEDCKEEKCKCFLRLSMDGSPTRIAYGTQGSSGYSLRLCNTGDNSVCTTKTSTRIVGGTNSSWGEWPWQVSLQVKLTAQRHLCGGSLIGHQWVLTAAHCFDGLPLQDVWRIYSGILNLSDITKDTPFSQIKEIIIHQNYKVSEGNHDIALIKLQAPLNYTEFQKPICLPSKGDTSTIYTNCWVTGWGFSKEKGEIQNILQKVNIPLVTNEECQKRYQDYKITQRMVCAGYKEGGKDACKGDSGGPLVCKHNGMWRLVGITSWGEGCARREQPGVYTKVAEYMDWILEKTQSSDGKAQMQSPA

Row | Substance | protease activity (decomposition of a peptide substrate)
1 | Human tryptase | did not suppress the protease activity of any of the proteases at a final inhibitor concentration of 1 micro M
2 | Human thrombin | did not suppress the protease activity of any of the proteases at a final inhibitor concentration of 1 micro M
3 | Human protein C | did not suppress the protease activity of any of the proteases at a final inhibitor concentration of 1 micro M
4 | Human plasma kallikrein | did not suppress the protease activity of any of the proteases at a final inhibitor concentration of 1 micro M
5 | Bovine α-chymotrypsin | did not suppress the protease activity of any of the proteases at a final inhibitor concentration of 1 micro M
6 | Human uPA | did not suppress the protease activity of any of the proteases at a final inhibitor concentration of 1 micro M
